According to publication PMC5499601 (Nucleic Acids Research, 2017):

Key:
Test in all cases: EMSA
BsSpo0J R79A = target: T1, BsSpo0J R79A (UniProt P26497 1-282, R79A)
T1 sequence: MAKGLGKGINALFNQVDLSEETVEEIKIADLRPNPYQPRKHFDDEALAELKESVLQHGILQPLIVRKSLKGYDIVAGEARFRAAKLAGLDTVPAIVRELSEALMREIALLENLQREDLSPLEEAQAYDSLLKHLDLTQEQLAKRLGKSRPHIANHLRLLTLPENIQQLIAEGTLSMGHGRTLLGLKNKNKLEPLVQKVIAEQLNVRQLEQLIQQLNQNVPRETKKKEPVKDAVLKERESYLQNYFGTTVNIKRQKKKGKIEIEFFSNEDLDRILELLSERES

BsSpo0J Q140A = target: T2, BsSpo0J Q140A (UniProt P26497 1-282, Q140A)
T2 sequence: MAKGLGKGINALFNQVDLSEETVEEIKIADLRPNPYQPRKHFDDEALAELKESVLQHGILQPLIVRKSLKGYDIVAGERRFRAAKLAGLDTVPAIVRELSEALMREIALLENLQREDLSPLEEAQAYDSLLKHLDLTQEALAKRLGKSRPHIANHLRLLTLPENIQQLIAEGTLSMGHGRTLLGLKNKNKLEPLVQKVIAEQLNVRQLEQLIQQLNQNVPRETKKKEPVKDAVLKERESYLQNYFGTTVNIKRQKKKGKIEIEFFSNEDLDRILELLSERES

BsSpo0J Q61R = target: T3, BsSpo0J Q61R (UniProt P26497 1-282, Q61R)
T3 sequence: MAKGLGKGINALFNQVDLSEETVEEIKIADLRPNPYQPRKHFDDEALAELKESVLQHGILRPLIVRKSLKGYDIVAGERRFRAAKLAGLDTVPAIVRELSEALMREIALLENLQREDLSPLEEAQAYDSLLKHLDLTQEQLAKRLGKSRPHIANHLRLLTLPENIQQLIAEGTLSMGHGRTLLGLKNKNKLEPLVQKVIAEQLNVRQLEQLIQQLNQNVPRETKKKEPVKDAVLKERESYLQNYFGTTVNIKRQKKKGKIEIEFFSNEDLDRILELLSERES

BsSpo0J Q61A = target: T4, BsSpo0J Q61A (UniProt P26497 1-282, Q61A)
T4 sequence: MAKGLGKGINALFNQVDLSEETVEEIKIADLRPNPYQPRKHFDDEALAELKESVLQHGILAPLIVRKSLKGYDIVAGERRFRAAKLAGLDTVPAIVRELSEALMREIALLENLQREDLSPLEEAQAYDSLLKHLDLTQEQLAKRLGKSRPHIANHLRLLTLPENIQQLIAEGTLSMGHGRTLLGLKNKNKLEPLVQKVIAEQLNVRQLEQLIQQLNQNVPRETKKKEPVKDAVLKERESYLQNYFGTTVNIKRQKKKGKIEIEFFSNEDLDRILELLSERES

BsSpo0J R105A = target: T5, BsSpo0J R105A (UniProt P26497 1-282, R105A)
T5 sequence: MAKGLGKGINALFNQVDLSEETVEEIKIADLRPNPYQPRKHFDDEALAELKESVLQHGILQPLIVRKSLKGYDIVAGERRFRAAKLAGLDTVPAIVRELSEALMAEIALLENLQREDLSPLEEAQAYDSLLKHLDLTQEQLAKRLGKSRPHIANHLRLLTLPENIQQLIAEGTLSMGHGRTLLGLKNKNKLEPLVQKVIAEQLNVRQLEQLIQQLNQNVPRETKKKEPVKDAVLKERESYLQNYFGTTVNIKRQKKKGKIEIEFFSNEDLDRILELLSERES

BsSpo0J WT = target: T6, BsSpo0J WT (UniProt P26497 1-282)
T6 sequence: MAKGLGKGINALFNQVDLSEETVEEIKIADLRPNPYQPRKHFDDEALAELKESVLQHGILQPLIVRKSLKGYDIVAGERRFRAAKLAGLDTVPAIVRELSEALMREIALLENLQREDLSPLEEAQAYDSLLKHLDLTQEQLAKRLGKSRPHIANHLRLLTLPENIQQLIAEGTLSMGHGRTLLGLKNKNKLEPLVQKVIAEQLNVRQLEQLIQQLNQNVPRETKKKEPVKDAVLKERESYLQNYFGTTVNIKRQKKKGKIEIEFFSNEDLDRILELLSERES

BsSpo0J H57E = target: T7, BsSpo0J H57E (UniProt P26497 1-282, H57E)
T7 sequence: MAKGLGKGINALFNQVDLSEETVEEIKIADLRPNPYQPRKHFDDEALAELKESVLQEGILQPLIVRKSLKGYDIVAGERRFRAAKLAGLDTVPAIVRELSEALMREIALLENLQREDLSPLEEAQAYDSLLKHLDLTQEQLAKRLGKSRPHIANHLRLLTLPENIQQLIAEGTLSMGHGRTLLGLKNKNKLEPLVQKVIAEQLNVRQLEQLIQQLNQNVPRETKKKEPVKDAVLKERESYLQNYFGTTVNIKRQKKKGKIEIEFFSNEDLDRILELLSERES

BsSpo0J E52R = target: T8, BsSpo0J E52R (UniProt P26497 1-282, E52R)
T8 sequence: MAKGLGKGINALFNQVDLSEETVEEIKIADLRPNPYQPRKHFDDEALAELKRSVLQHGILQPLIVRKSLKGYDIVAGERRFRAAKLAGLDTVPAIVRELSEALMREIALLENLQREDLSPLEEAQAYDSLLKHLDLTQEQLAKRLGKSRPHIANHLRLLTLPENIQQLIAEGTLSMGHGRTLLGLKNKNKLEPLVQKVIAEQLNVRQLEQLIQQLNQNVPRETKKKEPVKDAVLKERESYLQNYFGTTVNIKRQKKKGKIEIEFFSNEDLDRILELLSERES

BsSpo0J M104A = target: T9, BsSpo0J M104A (UniProt P26497 1-282, M104A)
T9 sequence: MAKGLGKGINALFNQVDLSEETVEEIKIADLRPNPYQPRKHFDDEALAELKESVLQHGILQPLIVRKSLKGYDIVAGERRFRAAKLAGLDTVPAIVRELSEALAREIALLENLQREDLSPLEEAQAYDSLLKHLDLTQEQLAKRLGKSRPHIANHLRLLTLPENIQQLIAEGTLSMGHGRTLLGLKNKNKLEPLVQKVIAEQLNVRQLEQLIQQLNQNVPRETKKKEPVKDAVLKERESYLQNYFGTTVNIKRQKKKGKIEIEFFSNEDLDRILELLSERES

Measured: binding result

B1: 39-bp parS (dsDNA)
DNA 1: CAGTTGAATCAGAATGTTCCACGTGAAACAAAGAAAAAA
DNA 2: TTTTTTCTTTGTTTCACGTGGAACATTCTGATTCAACTG
binds: all assays above
